Measured values from patent US20240139265A1 (published 2024).

Target: T1, HLA-B*08:01 class I complex (biotinylated heavy chain with beta2-microglobulin) (human)
T1 construct: Conditional HLA class I complex loaded with a UV-labile peptide that is exchanged for the test peptide
Experiment: UV peptide exchange + HLA class I ELISA; % of Pos control peptide
Method: The exchange efficiency between the peptide of interest and Pos was analyzed using an HLA class I ELISA.
The UV control represented UV-irradiation of conditional HLA class I complex in the absence of a rescue peptide. […] The HLA class I ELISA is an enzyme immunoassay based on the detection of beta2-microglobulin (B2M) of (peptide-stabilized) HLA class I complexes. To this end streptavidin was bound onto polystyrene microtiter wells. […] Non-bound material was removed by washing. Subsequently, horseradish peroxidase (HRP)-conjugated antibody to human B2M was added. […] In the latter case B2M was removed during the washing step. After removal of non-bound HRP conjugate by washing, a substrate solution was added to the wells. A coloured product formed in proportion to the amount of intact HLA complex present in the samples. After the reaction was terminated by the addition of a stop solution, absorbance was measured in a microtiter plate reader.

Binder | exchange rate with Pos peptide
FFKRAAEGF (Synthetic 9-mer) [P77 9-mer neoantigen peptide FFKRAAEGF (AR-V3 splice variant)] | 3.4%
RVGNCKHLK (Synthetic 9-mer) [P82 9-mer neoantigen peptide RVGNCKHLK (AR-V7 splice variant)] | 1.4%
RAVRRMNTF (Synthetic 9-mer) [P17 9-mer neoantigen peptide RAVRRMNTF (MSMB-NOCA4 fusion)] | 9%
FLFLLLPLS (Synthetic 9-mer) [P87 9-mer neoantigen peptide FLFLLLPLS (AR-Intron splice variant)] | 3.1%
LMAQRLLLR (Synthetic 9-mer) [P97 9-mer neoantigen peptide LMAQRLLLR (FOXRED2-TXN2 fusion)] | 2.7%
IVWWCPMSR (Synthetic 9-mer) [P98 9-mer neoantigen peptide IVWWCPMSR (TP53 (R213D) frameshift)] | 2.4%
IPVLTRWPL (Synthetic 9-mer) [P19 9-mer neoantigen peptide IPVLTRWPL (TMEM222-LOC644961 fusion)] | 14.5%
QLIAMDSAI (Synthetic 9-mer) [P22 9-mer neoantigen peptide QLIAMDSAI (SLC45A3-ELK4 fusion)] | 3.9%
FPVGAEGTF (Synthetic 9-mer) [P27 9-mer neoantigen peptide FPVGAEGTF (FAM126B-ORC2 fusion)] | 6.4%
NSKMALNSL (Synthetic 9-mer) [P35 9-mer neoantigen peptide NSKMALNSL (TMPRSS2-ERG fusion)] | 13.7%
GVLRRLLCR (Synthetic 9-mer) [P37 9-mer neoantigen peptide GVLRRLLCR (TSTD1-F11R fusion)] | 3.3%
CPMSRLRLA (Synthetic 9-mer) [P46 9-mer neoantigen peptide CPMSRLRLA (TP53 (R213D) frameshift)] | 14.5%
STRRAVRRM (Synthetic 9-mer) [P16 9-mer neoantigen peptide STRRAVRRM (MSMB-NCOA4 fusion)] | 6.2%
IQYSCMGLM (Synthetic 9-mer) [P50 9-mer neoantigen peptide IQYSCMGLM (AR (W742C) missense)] | 4.7%
RAKCKFSIL (Synthetic 9-mer) [P56 9-mer neoantigen peptide RAKCKFSIL (SPOP(F102C) missense)] | 38%
HVPKILSGK (Synthetic 9-mer) [P58 9-mer neoantigen peptide HVPKILSGK (AR (Q903H) missense)] | 5.3%
NMVENGCYL (Synthetic 9-mer) [P59 9-mer neoantigen peptide NMVENGCYL (FOXA1 (F254V) missense)] | 5.5%
YLRRQKRLK (Synthetic 9-mer) [P60 9-mer neoantigen peptide YLRRQKRLK (FOXA1.p.F266L missense)] | 10.2%
CYLGRQKRF (Synthetic 9-mer) [P61 9-mer neoantigen peptide CYLGRQKRF (FOXA1.p.R261G missense)] | 3.6%
LLERNSFEV (Synthetic 9-mer) [P73 9-mer neoantigen peptide LLERNSFEV (TP53 (G266E) missense)] | 2.6%
